Measurements from article PMC9482650, “Quantitative fragmentomics allow affinity mapping of interactomes” (Nature Communications, 2022).
Each block holds one binder with its values, some of them ahead of it.

Experiments:
Test in all cases: holdup assay
Parameters in all cases: key: below the threshold = too weak to quantify, mostly under pKd 3.1 to 4
AHNAK1, Q09666 = biological target: AHNAK1, Q09666
APBA2_2, Q99767 = biological target: T1, APBA2_2, Q99767
T1 sequence (Q99767 654-744, limits assumed, looked up): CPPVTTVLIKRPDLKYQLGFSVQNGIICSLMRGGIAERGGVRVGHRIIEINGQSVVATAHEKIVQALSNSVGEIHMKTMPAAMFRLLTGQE

ARHGAP21, Q5T5U3 = biological target: T2, ARHGAP21, Q5T5U3
T2 sequence (Q5T5U3 45-169, limits assumed, looked up): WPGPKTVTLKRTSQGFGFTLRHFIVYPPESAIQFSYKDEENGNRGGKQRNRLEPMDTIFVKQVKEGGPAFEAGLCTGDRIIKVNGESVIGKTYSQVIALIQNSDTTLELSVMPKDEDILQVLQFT

ARHGEF11, O15085 = biological target: T3, ARHGEF11, O15085
T3 sequence (O15085 42-136, limits assumed, looked up): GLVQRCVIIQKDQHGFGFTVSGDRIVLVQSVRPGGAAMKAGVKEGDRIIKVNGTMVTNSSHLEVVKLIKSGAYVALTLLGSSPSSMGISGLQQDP

ARHGEF12, Q9NZN5-2 = biological target: ARHGEF12, Q9NZN5-2
DFNB31_1, Q9P202 = biological target: T4, DFNB31_1, Q9P202
T4 sequence (Q9P202 135-233, limits assumed, looked up): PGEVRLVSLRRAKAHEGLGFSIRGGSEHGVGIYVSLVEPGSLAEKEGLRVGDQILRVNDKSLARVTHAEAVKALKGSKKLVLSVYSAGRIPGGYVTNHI

DFNB31_2, Q9P202 = biological target: T5, DFNB31_2, Q9P202
T5 sequence (Q9P202 274-371, limits assumed, looked up): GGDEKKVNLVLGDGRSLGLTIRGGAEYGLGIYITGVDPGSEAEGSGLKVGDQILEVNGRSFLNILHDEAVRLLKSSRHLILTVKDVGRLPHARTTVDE

DFNB31_3, Q9P202 = biological target: T6, DFNB31_3, Q9P202
T6 sequence (Q9P202 811-907, limits assumed, looked up): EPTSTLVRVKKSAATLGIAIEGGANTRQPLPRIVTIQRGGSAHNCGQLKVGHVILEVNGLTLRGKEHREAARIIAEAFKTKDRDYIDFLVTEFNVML

DLG1_2, Q12959 = biological target: DLG1_2, Q12959
DLG3_2, Q92796 = biological target: T7, DLG3_2, Q92796
T7 sequence (Q92796 221-321, limits assumed, looked up): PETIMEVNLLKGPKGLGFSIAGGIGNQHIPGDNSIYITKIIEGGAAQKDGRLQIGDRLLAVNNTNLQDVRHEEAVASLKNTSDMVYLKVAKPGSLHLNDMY

GIPC2, Q8TF65 = biological target: GIPC2, Q8TF65
GORASP1, Q9BQQ3 = biological target: GORASP1, Q9BQQ3
GRIP2_3, Q9C0E4 = biological target: GRIP2_3, Q9C0E4
GRIP2_6, Q9C0E4 = biological target: GRIP2_6, Q9C0E4
GRIP2_7, Q9C0E4 = biological target: GRIP2_7, Q9C0E4
HTRA3, P83110 = biological target: T8, HTRA3, P83110
T8 sequence (P83110 354-453, limits assumed, looked up): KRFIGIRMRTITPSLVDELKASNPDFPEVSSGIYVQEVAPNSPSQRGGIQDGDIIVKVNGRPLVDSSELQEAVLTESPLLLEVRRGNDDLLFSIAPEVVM

LRRC7, Q96NW7 = biological target: T9, LRRC7, Q96NW7
T9 sequence (Q96NW7 1440-1537, limits assumed, looked up): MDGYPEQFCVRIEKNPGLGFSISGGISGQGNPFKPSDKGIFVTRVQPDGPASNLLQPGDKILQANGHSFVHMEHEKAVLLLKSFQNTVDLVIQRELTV

MAGI2_2, Q86UL8 = biological target: MAGI2_2, Q86UL8
MAGI2_5, Q86UL8 = biological target: MAGI2_5, Q86UL8
PCLO, Q9Y6V0 = biological target: T10, PCLO, Q9Y6V0
T10 sequence (Q9Y6V0 4491-4600, limits assumed, looked up): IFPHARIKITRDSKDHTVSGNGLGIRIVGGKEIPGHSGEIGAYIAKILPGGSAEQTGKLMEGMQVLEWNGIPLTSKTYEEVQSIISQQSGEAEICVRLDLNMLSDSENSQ

SYNJ2BP, P57105 = biological target: T11, SYNJ2BP, P57105
T11 sequence (P57105 8-110, limits assumed, looked up): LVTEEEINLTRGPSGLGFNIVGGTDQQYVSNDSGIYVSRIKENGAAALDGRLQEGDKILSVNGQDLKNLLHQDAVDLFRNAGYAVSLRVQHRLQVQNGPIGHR

TJP3_3, O95049 = biological target: T12, TJP3_3, O95049
T12 sequence (O95049 375-456, limits assumed, looked up): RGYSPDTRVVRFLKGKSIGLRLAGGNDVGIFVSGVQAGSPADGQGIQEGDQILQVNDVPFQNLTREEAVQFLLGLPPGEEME

TX1BP3, O14907 = biological target: T13, TX1BP3, O14907
T13 sequence (O14907 10-122, limits assumed, looked up): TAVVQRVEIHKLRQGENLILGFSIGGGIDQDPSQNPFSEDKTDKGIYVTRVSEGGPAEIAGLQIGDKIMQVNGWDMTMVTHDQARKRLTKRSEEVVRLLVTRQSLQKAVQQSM

[1] = plain residues with an end cap or a label only (N-terminal biotin on a linker: ahx)
[2] = plain residues with an end cap or a label only (N-terminal biotin on a linker: ttds)

Sequence of DLG1_2, Q12959 (Q12959 314-412): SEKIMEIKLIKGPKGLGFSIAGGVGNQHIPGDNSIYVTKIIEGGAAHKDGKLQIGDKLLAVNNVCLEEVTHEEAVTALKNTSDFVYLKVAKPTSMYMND
Sequence of MAGI2_5, Q86UL8 (Q86UL8 915-1017): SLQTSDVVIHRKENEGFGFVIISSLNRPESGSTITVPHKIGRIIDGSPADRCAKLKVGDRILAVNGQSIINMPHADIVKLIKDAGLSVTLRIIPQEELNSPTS
Sequence of ARHGEF12, Q9NZN5-2 (Q9NZN5 other isoform, or with tags, fused parts or gaps): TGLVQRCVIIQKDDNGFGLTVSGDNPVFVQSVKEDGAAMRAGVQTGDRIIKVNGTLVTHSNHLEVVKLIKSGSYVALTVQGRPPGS
Sequence of AHNAK1, Q09666 (Q09666 4-100): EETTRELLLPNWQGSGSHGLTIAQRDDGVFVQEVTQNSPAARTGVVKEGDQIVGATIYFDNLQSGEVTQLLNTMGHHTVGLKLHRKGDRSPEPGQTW
Sequence of GRIP2_7, Q9C0E4 (Q9C0E4 934-1023): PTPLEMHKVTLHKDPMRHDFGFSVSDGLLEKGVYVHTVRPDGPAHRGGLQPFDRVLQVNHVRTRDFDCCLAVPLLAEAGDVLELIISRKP
Sequence of GRIP2_6, Q9C0E4 (Q9C0E4 648-740): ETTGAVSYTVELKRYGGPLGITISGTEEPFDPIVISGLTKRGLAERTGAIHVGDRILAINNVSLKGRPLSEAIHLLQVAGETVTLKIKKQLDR
Sequence of GIPC2, Q8TF65 (Q8TF65 112-203): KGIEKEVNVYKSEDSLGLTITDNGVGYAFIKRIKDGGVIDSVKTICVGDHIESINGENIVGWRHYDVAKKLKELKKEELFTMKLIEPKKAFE
Sequence of GORASP1, Q9BQQ3 (Q9BQQ3 1-208): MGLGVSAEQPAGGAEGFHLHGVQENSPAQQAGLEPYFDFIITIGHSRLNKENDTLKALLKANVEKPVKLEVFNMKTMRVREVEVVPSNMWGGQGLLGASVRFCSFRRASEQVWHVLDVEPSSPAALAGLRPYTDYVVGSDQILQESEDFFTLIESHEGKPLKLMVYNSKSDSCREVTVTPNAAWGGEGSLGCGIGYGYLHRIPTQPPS
Sequence of GRIP2_3, Q9C0E4 (Q9C0E4 238-339): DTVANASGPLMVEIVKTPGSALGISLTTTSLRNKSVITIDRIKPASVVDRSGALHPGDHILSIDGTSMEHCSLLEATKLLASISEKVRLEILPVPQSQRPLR
Sequence of MAGI2_2, Q86UL8 (Q86UL8 410-522): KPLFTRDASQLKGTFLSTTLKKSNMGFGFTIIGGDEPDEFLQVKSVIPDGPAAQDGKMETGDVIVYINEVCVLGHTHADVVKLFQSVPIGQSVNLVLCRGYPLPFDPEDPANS

pKd (AHNAK1, Q09666; [1]): below the threshold
pKd (APBA2_2, Q99767; [1]): below the threshold
pKd (ARHGAP21, Q5T5U3; [1]): below the threshold
pKd (ARHGEF11, O15085; [1]): below the threshold
pKd (ARHGEF12, Q9NZN5-2; [1]): 3.98
pKd (DFNB31_1, Q9P202; [1]): below the threshold
pKd (DFNB31_2, Q9P202; [1]): below the threshold
pKd (DFNB31_3, Q9P202; [1]): below the threshold
pKd (DLG1_2, Q12959; [1]): below the threshold
pKd (DLG3_2, Q92796; [1]): below the threshold
pKd (GIPC2, Q8TF65; [1]): below the threshold
pKd (GORASP1, Q9BQQ3; [1]): below the threshold
pKd (GRIP2_3, Q9C0E4; [1]): below the threshold
pKd (GRIP2_6, Q9C0E4; [1]): below the threshold
pKd (GRIP2_7, Q9C0E4; [1]): below the threshold
pKd (HTRA3, P83110; [1]): below the threshold
pKd (LRRC7, Q96NW7; [1]): below the threshold
pKd (MAGI2_2, Q86UL8; [1]): below the threshold
pKd (MAGI2_5, Q86UL8; [1]): below the threshold
pKd (PCLO, Q9Y6V0; [1]): below the threshold
pKd (SYNJ2BP, P57105; [1]): below the threshold
pKd (TJP3_3, O95049; [1]): below the threshold
pKd (TX1BP3, O14907; [1]): below the threshold
Binder: SKKNELFSNL [NHERF1, O14745]

pKd (AHNAK1, Q09666; [1]): below the threshold
pKd (APBA2_2, Q99767; [1]): below the threshold
pKd (ARHGAP21, Q5T5U3; [1]): below the threshold
pKd (ARHGEF11, O15085; [1]): below the threshold
pKd (ARHGEF12, Q9NZN5-2; [1]): below the threshold
pKd (DFNB31_1, Q9P202; [1]): below the threshold
pKd (DFNB31_2, Q9P202; [1]): below the threshold
pKd (DFNB31_3, Q9P202; [1]): below the threshold
pKd (DLG1_2, Q12959; [1]): below the threshold
pKd (DLG3_2, Q92796; [1]): below the threshold
pKd (GIPC2, Q8TF65; [1]): below the threshold
pKd (GORASP1, Q9BQQ3; [1]): below the threshold
pKd (GRIP2_3, Q9C0E4; [1]): below the threshold
pKd (GRIP2_6, Q9C0E4; [1]): below the threshold
pKd (GRIP2_7, Q9C0E4; [1]): below the threshold
pKd (HTRA3, P83110; [1]): below the threshold
pKd (LRRC7, Q96NW7; [1]): below the threshold
pKd (MAGI2_2, Q86UL8; [1]): below the threshold
pKd (MAGI2_5, Q86UL8; [1]): below the threshold
pKd (PCLO, Q9Y6V0; [1]): below the threshold
pKd (SYNJ2BP, P57105; [1]): below the threshold
pKd (TJP3_3, O95049; [1]): below the threshold
pKd (TX1BP3, O14907; [1]): below the threshold
Binder: SAPATLSSRA [PDLIM2, Q96JY6]

pKd (AHNAK1, Q09666; [2]): below the threshold
pKd (APBA2_2, Q99767; [2]): below the threshold
pKd (ARHGAP21, Q5T5U3; [2]): 4.55
pKd (ARHGEF11, O15085; [2]): 5.24
pKd (ARHGEF12, Q9NZN5-2; [2]): 5.22
pKd (DFNB31_1, Q9P202; [2]): 4.97
pKd (DFNB31_2, Q9P202; [2]): below the threshold
pKd (DFNB31_3, Q9P202; [2]): below the threshold
pKd (DLG1_2, Q12959; [2]): 4.4
pKd (DLG3_2, Q92796; [2]): 4.28
pKd (GIPC2, Q8TF65; [2]): 4.04
pKd (GORASP1, Q9BQQ3; [2]): 4.02
pKd (GRIP2_3, Q9C0E4; [2]): below the threshold
pKd (GRIP2_6, Q9C0E4; [2]): below the threshold
pKd (GRIP2_7, Q9C0E4; [2]): below the threshold
pKd (HTRA3, P83110; [2]): below the threshold
pKd (LRRC7, Q96NW7; [2]): 4.47
pKd (MAGI2_2, Q86UL8; [2]): 4.33
pKd (MAGI2_5, Q86UL8; [2]): 4.97
pKd (PCLO, Q9Y6V0; [2]): below the threshold
pKd (SYNJ2BP, P57105; [2]): 5.45
pKd (TJP3_3, O95049; [2]): below the threshold
pKd (TX1BP3, O14907; [2]): 5.24
Binder: SSIDLWETAL [SLC15A5, A6NIM6]
